Changes are numbered by the printed parent chain. In names and notes the source's numbering stands.
T1: recombinant Factor VIII (CSL627, rVIII-SingleChain) (Homo sapiens (Human), UniProt P00451 20-2351)
T1 construct: also called FVIII
T1 sequence: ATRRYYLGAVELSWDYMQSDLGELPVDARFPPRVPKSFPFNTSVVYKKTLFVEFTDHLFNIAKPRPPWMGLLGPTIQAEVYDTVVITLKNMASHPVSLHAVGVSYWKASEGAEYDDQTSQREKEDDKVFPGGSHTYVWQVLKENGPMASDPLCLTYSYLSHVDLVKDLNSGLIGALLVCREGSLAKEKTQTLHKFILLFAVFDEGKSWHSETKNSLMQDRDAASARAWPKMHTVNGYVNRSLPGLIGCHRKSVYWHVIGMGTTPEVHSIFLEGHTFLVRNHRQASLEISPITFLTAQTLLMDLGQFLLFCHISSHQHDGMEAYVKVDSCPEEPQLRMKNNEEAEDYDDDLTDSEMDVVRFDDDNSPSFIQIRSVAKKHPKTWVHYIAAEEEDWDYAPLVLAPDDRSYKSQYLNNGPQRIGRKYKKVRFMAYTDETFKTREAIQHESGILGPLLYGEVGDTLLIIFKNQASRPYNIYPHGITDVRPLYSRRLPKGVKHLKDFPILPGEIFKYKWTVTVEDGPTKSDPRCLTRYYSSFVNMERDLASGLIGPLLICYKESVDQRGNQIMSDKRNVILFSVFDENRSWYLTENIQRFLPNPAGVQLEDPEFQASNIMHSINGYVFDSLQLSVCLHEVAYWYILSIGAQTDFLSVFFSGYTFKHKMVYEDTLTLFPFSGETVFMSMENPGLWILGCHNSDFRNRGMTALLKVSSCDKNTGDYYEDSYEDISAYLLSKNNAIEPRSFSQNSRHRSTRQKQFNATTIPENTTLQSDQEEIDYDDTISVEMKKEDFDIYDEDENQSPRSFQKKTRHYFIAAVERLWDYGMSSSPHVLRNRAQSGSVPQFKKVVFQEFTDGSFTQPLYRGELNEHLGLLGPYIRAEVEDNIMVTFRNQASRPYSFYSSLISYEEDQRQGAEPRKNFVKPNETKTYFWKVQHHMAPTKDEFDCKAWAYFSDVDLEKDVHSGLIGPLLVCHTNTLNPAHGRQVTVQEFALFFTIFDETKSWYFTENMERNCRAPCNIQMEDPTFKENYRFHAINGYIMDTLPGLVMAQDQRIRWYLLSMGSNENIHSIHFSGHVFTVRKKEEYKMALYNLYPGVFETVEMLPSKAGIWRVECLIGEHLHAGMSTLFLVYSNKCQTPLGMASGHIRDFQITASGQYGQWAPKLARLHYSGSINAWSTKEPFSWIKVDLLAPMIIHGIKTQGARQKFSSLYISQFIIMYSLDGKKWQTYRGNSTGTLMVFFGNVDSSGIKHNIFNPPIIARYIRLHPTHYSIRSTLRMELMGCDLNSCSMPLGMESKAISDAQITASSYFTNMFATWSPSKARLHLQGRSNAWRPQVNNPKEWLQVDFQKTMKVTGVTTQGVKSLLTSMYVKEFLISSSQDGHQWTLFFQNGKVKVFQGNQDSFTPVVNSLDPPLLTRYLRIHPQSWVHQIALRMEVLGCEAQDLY

T2: recombinant Factor VIII (CSL627, rVIII-SingleChain) (Homo sapiens (Human), UniProt P00451 20-2351)
T2 construct: also called FVIII
T2 sequence: T1 sequence

B1: Hu-vWF[764-1270]-8His S764P-K773A (other)
chain: PLSCRPPMVALVCPADNLRAEGLECTKTCQNYDLECMSMGCVSGCLCPPGMVRHENRCVALERCPCFHQGKEYAPGETVKIGCNTCVCRDRKWNCTDHVCDATCSTIGMAHYLTFDGLKYLFPGECQYVLVQDYCGSNPGTFRILVGNKGCSHPSVKCKKRVTILVEGGEIELFDGEVNVKRPMKDETHFEVVESGRYIILLLGKALSVVWDRHLSISVVLKQTYQEKVCGLCGNFDGIQNNDLTSSNLQVEEDPVDFGNSWKVSSQCADTRKVPLDSSPATCHNNIMKQTMVDSSCRILTSDVFQDCNKLVDPEPYLDVCIYDTCSCESIGDCACFCDTIAAYAHVCAQHGKVVTWRTATLCPQSCEERNLRENGYECEWRYNSCAPACQVTCQHPEPLACPVQCVEGCHAHCPPGKILDELLQTCVDPEDCPVCEVAGRRFASGKKVTLNPSDPEHCQICHCDVVNLTCEACQEPGGLVVPPTDAPVSPTTLYVEDISEPPLHDFHHHHHHHH
B2: Hu-vWF[764-1270]-8His S764P-K773D (other)
chain: B1 chain with A10D
B3: Hu-vWF[764-1270]-8His S764P-K773E (other)
chain: B1 chain with A10E
B4: Hu-vWF[764-1270]-8His S764P-K773H (other)
chain: B1 chain with A10H
B5: Hu-vWF[764-1270]-8His S764P-K773G (other)
chain: B1 chain with A10G
B6: Hu-vWF[764-1270]-8His S764P-K773F (other)
chain: B1 chain with A10F
B7: Hu-vWF[764-1270]-8His S766Y-R768L (other)
chain: B1 chain with P1S, S3Y, R5L, A10K
B8: Hu-vWF[764-1270]-8His S766Y-R768M (other)
chain: B1 chain with P1S, S3Y, R5M, A10K
B9: Hu-vWF[764-1270]-8His S766Y-R768G (other)
chain: B1 chain with P1S, S3Y, R5G, A10K
B10: Hu-vWF[764-1270]-8His S766Y-R768D (other)
chain: B1 chain with P1S, S3Y, R5D, A10K
B11: Hu-vWF[764-1270]-8His S766Y-R768I (other)
chain: B1 chain with P1S, S3Y, R5I, A10K
B12: Hu-vWF[764-1270]-8His S766Y-R768Q (other)
chain: B1 chain with P1S, S3Y, R5Q, A10K
B13: Hu-vWF[764-1270]-8His S766Y-P769R (other)
chain: B1 chain with P1S, S3Y, P6R, A10K
B14: Hu-vWF[764-1270]-8His S766Y-R768P (other)
chain: B1 chain with P1S, S3Y, R5P, A10K
B15: Hu-vWF[764-1270]-8His S766Y-P769Y (other)
chain: B1 chain with P1S, S3Y, P6Y, A10K
B16: Hu-vWF[764-1270]-8His S766Y-R768A (other)
chain: B1 chain with P1S, S3Y, R5A, A10K
B17: Hu-vWF[764-1270]-8His S766Y-R768E (other)
chain: B1 chain with P1S, S3Y, R5E, A10K
B18: Hu-vWF[764-1270]-8His S766Y-R768S (other)
chain: B1 chain with P1S, S3Y, R5S, A10K
B19: Hu-vWF[764-1270]-8His S766Y-P769T (other)
chain: B1 chain with P1S, S3Y, P6T, A10K
B20: Hu-vWF[764-1270]-8His S766Y-R768H (other)
chain: B1 chain with P1S, S3Y, R5H, A10K
B21: Hu-vWF[764-1270]-8His S766Y-P769N (other)
chain: B1 chain with P1S, S3Y, P6N, A10K
B22: Hu-vWF[764-1270]-8His S766Y-R768T (other)
chain: B1 chain with P1S, S3Y, R5T, A10K
B23: Hu-vWF[764-1270]-8His S766Y-P769S (other)
chain: B1 chain with P1S, S3Y, P6S, A10K
B24: Hu-vWF[764-1270]-8His S766Y-P769Q (other)
chain: B1 chain with P1S, S3Y, P6Q, A10K
B25: Hu-vWF[764-1270]-8His S766Y-R768W (other)
chain: B1 chain with P1S, S3Y, R5W, A10K
B26: Hu-vWF[764-1270]-8His S766Y-P769W (other)
chain: B1 chain with P1S, S3Y, P6W, A10K
B27: Hu-vWF[764-1270]-8His S766Y-R768Y (other)
chain: B1 chain with P1S, S3Y, R5Y, A10K
B28: Hu-vWF[764-1270]-8His S766Y-R768V (other)
chain: B1 chain with P1S, S3Y, R5V, A10K
B29: Hu-vWF[764-1270]-8His S766Y-R768K (other)
chain: B1 chain with P1S, S3Y, R5K, A10K
B30: Hu-vWF[764-1270]-8His S766Y-R768N (other)
chain: B1 chain with P1S, S3Y, R5N, A10K
B31: Hu-vWF[764-1270]-8His S766Y-R768F (other)
chain: B1 chain with P1S, S3Y, R5F, A10K
B32: Hu-vWF[764-1270]-8His S766Y-P769V (other)
chain: B1 chain with P1S, S3Y, P6V, A10K

biological target: T1, recombinant Factor VIII (CSL627, …); test: SPR, anti-His capture
Method: Binding kinetics were investigated by surface plasmon resonance using a Biacore 4000 biosensor at 37° C. Each mutant was captured from cell culture medium to a density of 40-150 RU on a CM-5 sensor chip pre-immobilised with anti-His antibody (14,000 RU). In an initial screening study, FVIII was injected over the captured mutants for 5 minutes at 1 nM and dissociation monitored for 5 minutes.
All sensorgrams were double referenced by subtraction of signals from a reference spot (containing only immobilised anti His antibody) and from a blank injection. Binding kinetics were determined by fitting the double referenced sensorgrams to a 1:1 kinetic model.

Row | Kd [nM] | koff [s⁻¹] | kon [M⁻¹ s⁻¹] | Binder
1 | 0.0297 | 0.000189 | 6.37e+06 | B1
2 | 0.136 | 0.0024 | 1.77e+07 | B2
3 | 0.0765 | 0.00515 | 6.73e+07 | B3
4 | 0.0386 | 0.000636 | 1.65e+07 | B4
5 | 0.0436 | 0.000762 | 1.75e+07 | B5
6 | 0.121 | 0.00123 | 1.02e+07 | B6

biological target: T2, recombinant Factor VIII (CSL627, …); test: SPR, anti-His capture, FVIII injected, 37 C
Procedure, shortened: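 His-tagged mutants captured from culture medium (40–150 RU) on anti-His CM-5 surface at 37° C; FVIII injected 5 min, dissociation 5 min, at 1 nM in screening. Double-referenced sensorgrams fitted to a 1:1 kinetic model.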

Row | Kd [nM] | koff [s⁻¹] | kon [M⁻¹ s⁻¹] | binding result | Binder
7 | 0.129 | 0.000548 | 4.24e+06 |  | B7
8 | 0.196 | 0.000801 | 4.08e+06 |  | B8
9 | 0.32 | 0.00102 | 3.2e+06 |  | B9
10 | 0.908 | 0.00448 | 4.94e+06 |  | B10
11 | 0.179 | 0.000899 | 5.03e+06 |  | B11
12 | 0.174 | 0.000606 | 3.48e+06 |  | B12
13 | 0.045 | 0.000295 | 6.55e+06 |  | B13
14 | 0.213 | 0.00143 | 6.71e+06 |  | B14
15 | 0.0847 | 0.000396 | 4.68e+06 |  | B15
16 | 0.212 | 0.00148 | 6.99e+06 |  | B16
17 | 0.569 | 0.00322 | 5.65e+06 |  | B17
18 | 0.243 | 0.00129 | 5.33e+06 |  | B18
19 | 0.0979 | 0.0005 | 5.11e+06 |  | B19
20 | 0.172 | 0.00069 | 4.02e+06 |  | B20
21 | 0.0325 | 0.00052 | 1.6e+07 |  | B21
22 | 0.256 | 0.00143 | 5.59e+06 |  | B22
23 | 0.113 | 0.000511 | 4.51e+06 |  | B23
24 |  |  |  | no binding | B24
25 | 0.213 | 0.00094 | 4.42e+06 |  | B25
26 | 0.0882 | 0.000421 | 4.77e+06 |  | B26
27 | 0.277 | 0.00187 | 6.74e+06 |  | B27
28 | 0.203 | 0.000918 | 4.51e+06 |  | B28
29 | 0.109 | 0.000417 | 3.83e+06 |  | B29
30 | 0.191 | 0.000798 | 4.18e+06 |  | B30
31 | 0.279 | 0.00182 | 6.51e+06 |  | B31
32 | 0.0849 | 0.000565 | 6.65e+06 |  | B32

— patent US20190015483A1 (CSL BEHRING RECOMBINANT FACILITY, published 2019)
